Test [1] has as its target mouse ASIC1a channel (mouse (endogenous in C57BL/6 striatal neurons)) (UniProt Q6NXK8).
Test [2] addresses human ASIC1a channel (human (endogenous in HEK293)) (UniProt P78348).
In test [3] the target is eGFP-ASIC1a (rat ASIC1a subunit fused to eGFP) (rat) (UniProt P55926).
Test [4] has as its target mouse ASIC1a channel (mouse (endogenous in C57BL/6 striatal neurons)) (UniProt Q6NXK8). This is another data set of the same source.
The target in test [5] is human ASIC1a channel (human (endogenous in HEK293)) (UniProt P78348). The source holds these as a separate data set.
The target in test [6] is eGFP-ASIC1a (rat ASIC1a subunit fused to eGFP) (rat) (UniProt P55926). This is another data set of the same source.

The values that follow come from article PMC8523820.

Chain of UniProt P55926 (P55926 whole entry, the tested form may be a part): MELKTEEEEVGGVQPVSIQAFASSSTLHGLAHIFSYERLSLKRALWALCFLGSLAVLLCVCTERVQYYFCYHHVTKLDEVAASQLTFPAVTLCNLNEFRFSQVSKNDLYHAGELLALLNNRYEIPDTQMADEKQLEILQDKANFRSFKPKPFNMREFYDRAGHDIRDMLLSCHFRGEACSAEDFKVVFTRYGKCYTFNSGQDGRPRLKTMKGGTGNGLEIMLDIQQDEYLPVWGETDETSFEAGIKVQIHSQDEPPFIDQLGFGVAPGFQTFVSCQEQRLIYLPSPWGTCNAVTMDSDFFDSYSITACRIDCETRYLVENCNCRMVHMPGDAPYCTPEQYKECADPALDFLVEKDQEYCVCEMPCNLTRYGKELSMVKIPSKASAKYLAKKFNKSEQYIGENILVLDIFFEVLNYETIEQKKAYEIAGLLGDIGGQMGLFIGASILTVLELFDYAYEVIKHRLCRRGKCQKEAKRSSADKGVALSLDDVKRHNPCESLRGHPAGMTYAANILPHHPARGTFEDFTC
Chain of UniProt P78348 (P78348 whole entry, the tested form may be a part): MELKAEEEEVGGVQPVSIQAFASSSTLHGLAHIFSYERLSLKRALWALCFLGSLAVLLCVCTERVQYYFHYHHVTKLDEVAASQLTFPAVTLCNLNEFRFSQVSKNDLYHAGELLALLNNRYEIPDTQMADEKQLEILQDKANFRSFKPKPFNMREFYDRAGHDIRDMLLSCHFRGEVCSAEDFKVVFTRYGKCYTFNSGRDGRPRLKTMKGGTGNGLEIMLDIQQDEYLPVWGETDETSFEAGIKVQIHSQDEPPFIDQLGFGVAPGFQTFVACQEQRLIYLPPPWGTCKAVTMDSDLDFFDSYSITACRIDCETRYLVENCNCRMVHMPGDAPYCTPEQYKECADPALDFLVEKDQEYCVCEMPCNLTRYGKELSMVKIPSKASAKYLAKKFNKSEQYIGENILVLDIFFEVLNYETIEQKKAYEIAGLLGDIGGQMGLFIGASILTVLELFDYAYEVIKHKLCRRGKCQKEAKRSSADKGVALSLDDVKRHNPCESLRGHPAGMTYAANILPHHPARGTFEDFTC
Chain of UniProt Q6NXK8 (Q6NXK8 whole entry): as the sequence (P55926 whole entry, the tested form may be a part) above, with S476N counted along it

Regarding MitTx (complex), the pERK/tERK relative to control, Western blot of lysates of mouse striatal neurons treated with 20 nM MitTx for 2 min (fold of control) in test [1] amounted to 5.39. This substance registered a pERK/tERK relative to control, Western blot of lysates of HEK cells treated with 20 nM MitTx for 2 to 10 min (7.98 at 2 min, 10.90 at 10 min) (fold of control) in test [2] of 10.9. Also, in test [3], the pERK/tERK relative to untreated eASICx1 cells, Western blot of HEK cells transfected with eGFP-ASIC1a (x1) and treated with MitTx (fold of eASICx1 levels) is 3.42; the pERK/tERK relative to untreated eASICx1 cells, Western blot of HEK cells transfected with eGFP-ASIC1a (x3) and treated with MitTx (fold of eASICx1 levels) was 9.96. The substance also registered a pCaMKII/Tub relative to control, Western blot of lysates of mouse striatal neurons treated with 20 nM MitTx for 2 min (fold of control) in test [4] of 6.37. In test [5], the pCaMKII/Tub relative to control, HEK cells pre-incubated with 20 nM Pctx-1 for 30 min, then MitTx for 2 min (fold of control) is 1.17; the pCaMKII/Tub relative to control, Western blot of lysates of HEK cells treated with 20 nM MitTx for 2 to 10 min (8.88 at 2 min, 10.76 at 10 min) (fold of control) was 10.8; the pERK/tERK relative to control, HEK cells pre-incubated with 20 nM Pctx-1 for 30 min, then MitTx for 2 to 10 min (1.18 at 2 min, 1.42 at 10 min) (fold of control) worked out at 1.42. In test [6], the pERK/tERK relative to untreated eASICx1 cells, HEK cells transfected with eGFP-ASIC1a (x1), pre-incubated with Pctx-1, then MitTx (fold of eASICx1 levels) stood at 1.1.
